Laboratory results reported in patent publication US20180111972A1 (Stanford University, published 2018).
Read-outs that look alike come from different tables or passages of the source.

T1: scPDGF, yeast-displayed (human)
T1 chain: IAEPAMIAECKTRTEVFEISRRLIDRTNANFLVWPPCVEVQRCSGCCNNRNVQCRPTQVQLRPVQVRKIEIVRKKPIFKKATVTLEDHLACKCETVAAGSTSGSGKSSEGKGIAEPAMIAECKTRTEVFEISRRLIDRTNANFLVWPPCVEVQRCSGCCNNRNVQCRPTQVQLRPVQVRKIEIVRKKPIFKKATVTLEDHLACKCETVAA

B1: scPDGF, single-chain version of wild-type PDGF-BB, soluble, FLAG and hexahistidine tags (ligand)
chain: T1 chain
B2: scVEGFwt, single-chain version of VEGF-A, soluble, FLAG and hexahistidine tags (ligand)
chain: DYKDDDDKEVVKFMDVYQRSYCHPIETLVDIFQEYPDEIEYIFKPSCVPLMRCGGCCNDEGLECVPTEESNITMQIMRIKPHQGQHIGEMSFLQHNKCECRPKKDGSTSGSGKSSEGKGEVVKFMDVYQRSYCHPIETLVDIFQEYPDEIEYIFKPSCVPLMRCGGCCNDEGLECVPTEESNITMQIMRIKPHQGQHIGEMSFLQHNKCECRPKKDHHHHHH
notes: Expressed in Pichia pastoris GS115; also called single-chain VEGF-A
B3: PVGS, soluble, FLAG and hexahistidine tags (designed binder)
chain: DYKDDDDKIAEPAMIAECHPIETLVDILQEYPDEIGYIFKPSCVPLMRCGGCCNNRNVQCRPTEESNITMQIMRIKPHRGQHIGEMSFLQHNKCRCETVAAGGGGSGGGGSGGGGSGGGGSEVVKFMDVYQRSYCKTRTEVFEISRRLIDATNANFLVWPPCVEVQRCSGCCNHEGLECVPTQVQLRPVQVRKIEFVRKKPIFKKATVTLEDHLACECRPKKDHHHHHH
notes: Secreted from S. cerevisiae YVH10 at 20 C and treated with Endo Hf
B4: PDGFRβ-His (residues 1-314 of PDGFR-β with C-terminal hexahistidine tag) (receptor)
chain: LVVTPPGPELVLNVSSTFVLTCSGSAPVVWERMSQEPPQEMAKAQDGTFSSVLTLTNLTGLDTGEYFCTHNDSRGLETDERKRLYIFVPDPTVGFLPNDAEELFIFLTEITEITIPCRVTDPQLVVTLHEKKGDVALPVPYDHQRGFSGIFEDRSYICKTTIGDREVDSDAYYVYRLQVSSINVSVNAVQTVVRQGENITLMCIVIGNEVVNFEWTYPRKESGRLVEPVTDFLLDMPYHIRSILHIPSAELEDSGTYTCNVTESVNDHQDEKAINITVVESGHHHHHH
notes: range 1-314; Monovalent form, expressed in FreeStyle 293-F cells; also called PDGRβ-His; PDGFR-His

Columns and labels:
[1] = molecular target: PDGFRβ on DiscoveRx PathHunter U2OS PDGFRβ reporter cells (UniProt P09619 33-1106, limits assumed); assay: cell-based or functional assay
[2] = molecular target: B4; assay: KinExA, equilibrium titration in solution, n-curve analysis
Experimental: (§1) For KinExA measurements, a constant amount of PDGF/VEGF ligand is titrated with differing concentrations of PDGRβ-His or VEGFR2-His. The solutions are incubated for an appropriate amount of time to allow the ligand-receptor binding reaction to reach equilibrium. The solution is then briefly exposed to a solid support containing immobilized PDGFR or VEGFR, which captures unbound ligand. The amount of ligand bound to the solid support is then detected using a fluorescently-labeled antibody. […] For each binding interaction measured, curves for two concentrations of the constant ligand are performed. By performing two experiments with fixed ligand concentrations above and below the Kd, and fitting both sets of data with a nonlinear regression analysis, a more accurate measurement for the affinity can be obtained.
(§2) Kinetic Exclusion Assay (KinExA). All experiments were performed on a KinExA 3200 instrument with siliconized flow cell (Sapidyne Instruments Inc). […] 30 μg of receptor was incubated in 1 ml of 50 mM sodium bicarbonate, 0.5 M sodium citrate buffer, pH 8.3, for 2 hr at room temperature with rocking. Beads were allowed to settle by gravity and liquid removed. Beads were blocked by incubating in 1 ml of 10 mg/ml BSA in 1 M Tris buffer, pH 8.0, for 1 hr at room temperature with rocking, and stored in blocking buffer at 4° C. for up to one week until use. Running buffer contained PBS with 10 mM imidazole and 0.02% sodium azide. Samples were prepared in running buffer with 1 mg/ml BSA. Binding reactions were prepared with a fixed concentration of PDGF/VEGF ligands and dilution series of PDGFR or VEGFR. Captured PDGF/VEGF ligands were detected using a Dylight 649-conjugated anti-FLAG antibody (Rockland) at 1:1000 dilution in sample buffer. Kinetic experiments were performed with the “Kinetics Injection” method defined in the KinExA software. Data were analyzed with KinExA Pro Software.

[3] = molecular target: B4; assay: KinExA; calculated, could not be accurately determined because of the fast equilibrium time
[4] = molecular target: B4; assay: KinExA Kinetics Injection; could not be accurately determined because of the fast equilibrium time
[5] = molecular target: T2, human VEGFR on human umbilical vein endothelial cells (HUVECs) (human, UniProt P35968 20-1356); assay: flow cytometry on HUVECs, soluble ligand titrated 3 h at 4 C, anti-FLAG-PE
T2 construct: The phosphorylation blots on these cells detect VEGFR2
T2 sequence (P35968 20-1356 limits assumed): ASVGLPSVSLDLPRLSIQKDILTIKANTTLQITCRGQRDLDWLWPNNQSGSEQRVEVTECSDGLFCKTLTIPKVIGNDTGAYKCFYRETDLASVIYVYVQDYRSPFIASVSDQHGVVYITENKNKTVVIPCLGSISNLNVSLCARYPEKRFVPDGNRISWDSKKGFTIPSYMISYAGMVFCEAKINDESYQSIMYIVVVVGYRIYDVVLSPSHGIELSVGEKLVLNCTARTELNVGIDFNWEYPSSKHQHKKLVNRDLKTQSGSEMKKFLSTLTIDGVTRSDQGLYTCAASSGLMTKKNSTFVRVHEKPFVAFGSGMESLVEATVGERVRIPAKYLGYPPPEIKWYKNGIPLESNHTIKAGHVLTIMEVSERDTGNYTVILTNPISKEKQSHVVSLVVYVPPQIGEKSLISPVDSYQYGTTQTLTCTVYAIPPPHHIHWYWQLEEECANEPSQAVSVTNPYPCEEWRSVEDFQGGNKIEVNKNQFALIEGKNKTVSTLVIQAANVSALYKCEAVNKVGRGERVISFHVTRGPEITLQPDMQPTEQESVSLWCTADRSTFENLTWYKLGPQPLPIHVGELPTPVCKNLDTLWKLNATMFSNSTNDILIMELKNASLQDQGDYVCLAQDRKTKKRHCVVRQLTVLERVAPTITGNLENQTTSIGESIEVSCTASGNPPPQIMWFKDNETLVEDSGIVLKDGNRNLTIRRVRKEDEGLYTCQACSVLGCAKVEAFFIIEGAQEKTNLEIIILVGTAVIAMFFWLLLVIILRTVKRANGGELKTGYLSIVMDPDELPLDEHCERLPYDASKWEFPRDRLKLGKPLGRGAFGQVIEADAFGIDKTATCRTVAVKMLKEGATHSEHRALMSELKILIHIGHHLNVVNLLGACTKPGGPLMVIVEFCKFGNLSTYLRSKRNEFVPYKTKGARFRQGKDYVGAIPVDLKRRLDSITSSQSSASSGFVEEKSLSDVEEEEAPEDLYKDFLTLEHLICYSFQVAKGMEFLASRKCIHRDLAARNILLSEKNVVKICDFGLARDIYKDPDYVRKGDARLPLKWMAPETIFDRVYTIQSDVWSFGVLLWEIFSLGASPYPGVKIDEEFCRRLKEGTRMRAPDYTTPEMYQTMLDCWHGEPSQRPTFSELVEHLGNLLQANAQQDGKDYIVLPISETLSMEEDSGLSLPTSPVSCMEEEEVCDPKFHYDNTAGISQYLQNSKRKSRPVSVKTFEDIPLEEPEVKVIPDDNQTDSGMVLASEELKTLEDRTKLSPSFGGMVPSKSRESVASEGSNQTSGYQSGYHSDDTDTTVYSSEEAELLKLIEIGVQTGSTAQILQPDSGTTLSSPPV

[6] = molecular target: T2, human VEGFR on human umbilical vein …; assay: as above; remark: listed apart in the source
Experimental: (§3) To test binding to VEGFR, human umbilical vein endothelial cells (HUVECs) and murine angiosarcoma endothelial cells (SVR) were used.
(§4) Cell-binding assay. Varying concentrations of scPDGF, scVEGF, and PDGF/VEGF ligands were incubated with 25,000 PDGFR- or VEGFR-expressing cells in binding buffer (20 mM Tris pH 7.5 with 1 mM MgCl₂, 1 mM MnCl₂, 2 mM CaCl₂, 100 mM NaCl, and 1 mg/ml BSA) for 5 hr (BJ-5ta, NIH/3T3) or 3 hr (HUVEC, SVR) at 4° C. Cells were washed and pelleted, then incubated with 1:100 R-PE-conjugated anti-FLAG antibody (Prozyme) for 15 min on ice. Cells were washed, pelleted, and resuspended in binding buffer immediately before analysis by flow cytometry using BD Accuri C6. Flow cytometry data were analyzed using BD Accuri C6 software, and statistical analysis was performed using GraphPad Prism 6.

[7] = molecular target: T3, mouse VEGFR on SVR murine angiosarcoma endothelial cells (mouse); assay: flow cytometry on SVR cells, soluble ligand titrated 3 h at 4 C, anti-FLAG-PE
T3 construct: whole, on cells
T3 sequence (P35918 20-1345): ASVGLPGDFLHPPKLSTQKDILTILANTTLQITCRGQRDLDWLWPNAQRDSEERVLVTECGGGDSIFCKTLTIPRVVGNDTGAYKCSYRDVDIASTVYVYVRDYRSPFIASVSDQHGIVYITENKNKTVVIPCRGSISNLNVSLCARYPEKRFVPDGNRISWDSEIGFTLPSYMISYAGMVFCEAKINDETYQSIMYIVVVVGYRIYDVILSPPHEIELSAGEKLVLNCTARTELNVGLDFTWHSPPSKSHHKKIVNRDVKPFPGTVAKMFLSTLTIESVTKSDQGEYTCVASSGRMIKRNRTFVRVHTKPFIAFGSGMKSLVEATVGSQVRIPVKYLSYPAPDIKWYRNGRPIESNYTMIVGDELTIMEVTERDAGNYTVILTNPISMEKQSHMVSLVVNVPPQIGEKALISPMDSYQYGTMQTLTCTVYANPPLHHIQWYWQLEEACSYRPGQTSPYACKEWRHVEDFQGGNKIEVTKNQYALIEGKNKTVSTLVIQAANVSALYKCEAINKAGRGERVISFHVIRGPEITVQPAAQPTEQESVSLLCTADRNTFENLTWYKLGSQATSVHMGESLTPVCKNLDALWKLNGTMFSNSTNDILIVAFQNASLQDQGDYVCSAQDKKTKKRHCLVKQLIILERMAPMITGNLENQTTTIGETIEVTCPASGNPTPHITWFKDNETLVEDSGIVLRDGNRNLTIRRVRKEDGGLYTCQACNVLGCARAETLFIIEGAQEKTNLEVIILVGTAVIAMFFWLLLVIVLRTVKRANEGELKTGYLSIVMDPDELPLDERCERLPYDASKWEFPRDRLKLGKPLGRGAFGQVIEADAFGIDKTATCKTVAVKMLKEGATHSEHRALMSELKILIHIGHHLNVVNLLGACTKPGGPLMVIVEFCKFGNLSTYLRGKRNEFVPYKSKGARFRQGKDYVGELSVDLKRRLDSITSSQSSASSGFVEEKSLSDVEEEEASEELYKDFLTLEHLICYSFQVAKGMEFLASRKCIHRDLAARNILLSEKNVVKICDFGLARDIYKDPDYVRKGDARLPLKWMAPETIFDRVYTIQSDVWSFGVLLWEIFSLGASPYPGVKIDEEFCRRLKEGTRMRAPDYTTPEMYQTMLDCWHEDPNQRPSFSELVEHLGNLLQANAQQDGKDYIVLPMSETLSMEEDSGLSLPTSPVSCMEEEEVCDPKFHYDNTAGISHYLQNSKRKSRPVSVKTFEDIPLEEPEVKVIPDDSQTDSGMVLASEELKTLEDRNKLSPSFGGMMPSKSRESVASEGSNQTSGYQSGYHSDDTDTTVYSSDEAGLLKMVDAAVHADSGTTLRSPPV
Experimental: as §3, §4

[8] = molecular target: T2, human VEGFR on human umbilical vein …; assay: flow cytometry titration of the soluble FLAG-tagged protein on HUVECs, anti-FLAG detection
Experimental: as §3, §4

[9] = molecular target: B4; assay: KinExA
Experimental: as §1
(§5) Kinetic Exclusion Assay (KinExA). All experiments were performed on a KinExA 3200 instrument with siliconized flow cell (Sapidyne Instruments Inc). […] 30 μg of receptor was incubated in 1 ml of 50 mM sodium bicarbonate, 0.5 M sodium citrate buffer, pH 8.3, for 2 hr at room temperature with rocking. Beads were allowed to settle by gravity and liquid removed. […] Captured PDGF/VEGF ligands were detected using a Dylight 649-conjugated anti-FLAG antibody (Rockland) at 1:1000 dilution in sample buffer. […] Data were analyzed with KinExA Pro Software.

[10] = molecular target: T4, VEGFR2-His (residues 1-764 of VEGFR2, Ig-like domains 1-7, with hexahistidine tag) (human, UniProt P35968 20-764); assay: KinExA
T4 construct: range 1-764; Monomeric form, expressed in FreeStyle 293-F cells; also called VEGFR-His
T4 sequence (P35968 other isoform, or with tags, fused parts or gaps limits assumed, form in doubt): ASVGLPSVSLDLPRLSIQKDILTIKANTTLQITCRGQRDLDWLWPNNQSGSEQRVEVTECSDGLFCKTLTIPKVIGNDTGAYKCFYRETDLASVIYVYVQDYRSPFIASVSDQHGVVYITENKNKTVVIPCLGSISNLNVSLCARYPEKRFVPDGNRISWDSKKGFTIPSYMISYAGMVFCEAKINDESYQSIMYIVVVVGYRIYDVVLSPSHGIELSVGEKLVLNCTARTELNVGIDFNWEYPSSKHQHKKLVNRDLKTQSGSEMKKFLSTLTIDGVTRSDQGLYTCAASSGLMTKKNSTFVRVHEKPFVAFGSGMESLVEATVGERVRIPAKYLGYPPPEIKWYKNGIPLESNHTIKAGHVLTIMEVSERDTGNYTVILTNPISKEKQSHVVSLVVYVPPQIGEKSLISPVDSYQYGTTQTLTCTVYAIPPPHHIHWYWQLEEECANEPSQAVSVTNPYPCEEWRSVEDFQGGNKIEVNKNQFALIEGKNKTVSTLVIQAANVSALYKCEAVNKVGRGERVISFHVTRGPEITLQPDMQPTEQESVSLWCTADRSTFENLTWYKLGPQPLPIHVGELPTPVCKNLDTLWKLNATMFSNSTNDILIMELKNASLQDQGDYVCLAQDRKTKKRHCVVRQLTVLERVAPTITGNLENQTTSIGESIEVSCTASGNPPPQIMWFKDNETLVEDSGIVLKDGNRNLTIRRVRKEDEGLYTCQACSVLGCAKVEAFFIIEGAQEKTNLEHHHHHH
Experimental: as §1, §5

[11] = molecular target: T2, human VEGFR on human umbilical vein …; assay: cell-based or functional assay
[12] = molecular target: T2, human VEGFR on human umbilical vein …; assay: flow cytometry on HUVECs
Experimental: as §3, §4

[13] = molecular target: T3, mouse VEGFR on SVR murine angiosarcoma …; assay: flow cytometry on SVR cells
Experimental: as §3, §4

[14] = molecular target: B4; assay: KinExA Kinetics Injection
Experimental: (§6) Additionally, the kinetic parameter kₒₙ can be determined by using a “kinetics injection” experiment. A constant concentration of PDGF/VEGF ligand is injected with an equal volume of differing concentrations of PDGRβ-His or VEGFR2-His. The two solutions are allowed to mix briefly (several seconds) in the time required for the instrument to deliver the mixture to the detection bead column. The pre-equilibrium concentrations of free ligand is fit to the standard bimolecular rate equation to obtain kₒₙ.
(§7) Kinetic Exclusion Assay (KinExA). All experiments were performed on a KinExA 3200 instrument with siliconized flow cell (Sapidyne Instruments Inc). […] 30 μg of receptor was incubated in 1 ml of 50 mM sodium bicarbonate, 0.5 M sodium citrate buffer, pH 8.3, for 2 hr at room temperature with rocking. Beads were allowed to settle by gravity and liquid removed. Beads were blocked by incubating in 1 ml of 10 mg/ml BSA in 1 M Tris buffer, pH 8.0, for 1 hr at room temperature with rocking, and stored in blocking buffer at 4° C. for up to one week until use. Running buffer contained PBS with 10 mM imidazole and 0.02% sodium azide. Samples were prepared in running buffer with 1 mg/ml BSA. Binding reactions were prepared with a fixed concentration of PDGF/VEGF ligands and dilution series of PDGFR or VEGFR. Captured PDGF/VEGF ligands were detected using a Dylight 649-conjugated anti-FLAG antibody (Rockland) at 1:1000 dilution in sample buffer. Kinetic experiments were performed with the “Kinetics Injection” method defined in the KinExA software. Data were analyzed with KinExA Pro Software. The Kd was determined from a global fit of two concentration curves using the “n-curve analysis” tool and the titrant concentrations as reference. […] The kₒₙ was calculated as a fit of the pre-equilibrium free ligand concentrations to the bimolecular binding equation using the “Kinetics Injection” tool.

[15] = molecular target: T4, VEGFR2-His (residues 1-764 of VEGFR2, …); assay: KinExA Kinetics Injection
Experimental: as §6, §7

[16] = molecular target: B4; assay: KinExA, calculated from Kd and kon
Experimental: (§8) By performing two experiments with fixed ligand concentrations above and below the Kd, and fitting both sets of data with a nonlinear regression analysis, a more accurate measurement for the affinity can be obtained.
as §6, §7

[17] = molecular target: T4, VEGFR2-His (residues 1-764 of VEGFR2, …); assay: KinExA, calculated from Kd and kon
Experimental: as §8, §6, §7

[18] = molecular target: T4, VEGFR2-His (residues 1-764 of VEGFR2, …); assay: KinExA, equilibrium titration in solution, n-curve analysis
Experimental: as §1, §2

[19] = molecular target: T3, mouse VEGFR on SVR murine angiosarcoma …; assay: flow cytometry titration of the soluble FLAG-tagged protein on SVR cells, anti-FLAG detection
Experimental: as §3, §4

scPDGF, yeast-displayed = molecular target: T1, scPDGF, yeast-displayed; assay: yeast surface display of scPDGF, flow cytometry titration of PDGFRβ-His, anti-His detection
Experimental: Cells were incubated in large enough volumes to avoid ligand depletion and appropriate time to reach equilibrium. During the last hour of incubation, yeast were incubated with 1:250 dilution of chicken anti-c-Myc (Invitrogen) in PBSA. […] Yeast were washed, pelleted, and resuspended in PBSA immediately before analysis by flow cytometry using BD FACSCalibur or BD Accuri C6. Flow cytometry data were analyzed using FlowJo (v7.6.1 and v10, Treestar) or BD Accuri C6 software. Statistical analysis was performed using GraphPad Prism 6.
Bound protein was detected using fluorescently-labeled anti-His and anti-mouse-Fc antibodies.

B1
EC50 of receptor activation, DiscoveRx PathHunter PDGFR reporter cells, chemiluminescence [1]: 0.14 nM
Kd [2]: 18 nM
koff [3]: > 0.31 s⁻¹
kon [4]: > 1.7e+07 M⁻¹ s⁻¹

B2
Kd [5]: 1.5 nM
Kd [6]: 18 nM
Kd [7]: 10 nM
EC50 (read off the curve) [8]: ~10 nM

B3
fold improvement in binding affinity compared to PV6 [9]: 130 fold
fold improvement in affinity compared to PV6 [10]: 2700 fold
IC50 of inhibition of HUVEC proliferation induced by 0.5 nM VEGF165, alamarBlue [11]: 1.2 nM
IC50 of inhibition of stimulation by 0.5 nM PDGF-BB, PathHunter PDGFRβ reporter cells [1]: 1.1 nM
fold improvement in affinity compared to PV6 [12]: 14 fold
fold improvement in affinity compared to PV6 [13]: 78 fold
kon [14]: 2e+07 M⁻¹ s⁻¹
kon [15]: 680000 M⁻¹ s⁻¹
koff [16]: 0.00013 s⁻¹
koff [17]: 9.6e-06 s⁻¹
Kd [2]: 0.0067 nM
Kd [18]: 0.014 nM
Kd [6]: 0.77 nM
Kd [7]: 0.45 nM
EC50 (read off the curve) [8]: ~0.8 nM
EC50 (read off the curve) [19]: ~0.5 nM

B4
EC50 (read off the curve) (scPDGF, yeast-displayed): ~300 nM
